# Experiments:
# [1] = system: Indicator molecule of Example 2 (peptide with one MMP9 cleavage site, first capture region ALP, terminal biotin via polyethylene glycol spacer)
# [2] = system: Indicator molecule of Example 3 (synthetic peptide with MMP-9 sequence, HNE sequence, DNP, fluorescent label and terminal biotin via PEG)
# [3] = system: Indicator molecule of Example 4 with 2 MMP9 cleavage sites (ALP first capture region, terminal biotin via PEG)
# [4] = system: Indicator molecule of Example 4 with 3 MMP9 cleavage sites (ALP first capture region, terminal biotin via PEG)
# [5] = system: Indicator molecule of Example 4 with 5 MMP9 cleavage sites (ALP first capture region, terminal biotin via PEG)
# [6] = system: Indicator molecule of Example 4 with 7 MMP9 cleavage sites (ALP first capture region, terminal biotin via PEG)
# [7] = system: Indicator molecule of Example 5 with 2 MMP9 cleavage sites (terminal biotin, DNP, FITC)
# [8] = system: Indicator molecule of Example 5 with 3 MMP9 cleavage sites (terminal biotin, DNP, FITC)
# [9] = system: Indicator molecule of Example 5 with 4 MMP9 cleavage sites (terminal biotin, DNP, FITC)
# Chain of Matrix Metalloprotease-9 (MMP-9) (Mologic) (chain, as listed by the source): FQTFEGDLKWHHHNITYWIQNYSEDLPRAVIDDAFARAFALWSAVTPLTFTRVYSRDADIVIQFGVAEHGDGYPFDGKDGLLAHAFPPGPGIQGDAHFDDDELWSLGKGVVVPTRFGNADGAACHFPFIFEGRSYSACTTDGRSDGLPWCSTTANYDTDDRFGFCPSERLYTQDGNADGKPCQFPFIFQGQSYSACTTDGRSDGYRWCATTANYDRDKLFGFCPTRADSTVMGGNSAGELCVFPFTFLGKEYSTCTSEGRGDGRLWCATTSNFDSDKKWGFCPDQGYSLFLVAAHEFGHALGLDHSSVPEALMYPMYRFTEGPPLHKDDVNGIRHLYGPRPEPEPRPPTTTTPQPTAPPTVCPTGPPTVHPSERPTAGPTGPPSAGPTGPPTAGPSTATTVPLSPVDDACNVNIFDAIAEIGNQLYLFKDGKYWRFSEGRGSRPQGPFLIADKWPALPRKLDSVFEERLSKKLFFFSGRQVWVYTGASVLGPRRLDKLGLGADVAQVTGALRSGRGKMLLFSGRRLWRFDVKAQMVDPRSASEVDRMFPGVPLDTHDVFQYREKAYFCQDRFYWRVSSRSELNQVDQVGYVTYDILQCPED
substance,measurement,setting,value
Matrix Metalloprotease-9 (MMP-9) (Mologic),detectable limit of the lateral flow cleavage assay,[1],approximately 250-500 ng/ml
same,sensitivity of the assay,[1],"250-500 ng/ml MMP9, seen with an indicator molecule having 1 cleavage site"
same,test line signal at 31.25 ng/ml MMP9,[1],0 reader units
same,test line signal at 62.5 ng/ml MMP9,[1],0 reader units
same,test line signal at 125 ng/ml MMP9,[1],0 reader units
same,test line signal at 250 ng/ml MMP9,[1],0 reader units
same,test line signal at 500 ng/ml MMP9,[1],1.93 reader units
same,test line signal at 1000 ng/ml MMP9,[1],4.52 reader units
same,test line signal at 2000 ng/ml MMP9,[1],8 reader units
same,cut-off of the assay,[2],The cut-off with all indicator molecules was below <31.25 ng/ml
same,detectable limit of the lateral flow cleavage assay,[2],approximately 125-250 ng/ml
same,test line signal at 31.25 ng/ml MMP9,[2],1.37 reader units
same,test line signal at 62.5 ng/ml MMP9,[2],1.28 reader units
same,test line signal at 125 ng/ml MMP9,[2],2.01 reader units
same,test line signal at 250 ng/ml MMP9,[2],3.34 reader units
same,test line signal at 500 ng/ml MMP9,[2],3.73 reader units
same,test line signal at 1000 ng/ml MMP9,[2],4.33 reader units
same,test line signal at 2000 ng/ml MMP9,[2],8.7 reader units
same,test line signal at 31.25 ng/ml MMP9,[3],0.68 reader units
same,test line signal at 62.5 ng/ml MMP9,[3],0.32 reader units
same,test line signal at 125 ng/ml MMP9,[3],0.57 reader units
same,test line signal at 250 ng/ml MMP9,[3],1.99 reader units
same,test line signal at 500 ng/ml MMP9,[3],3.48 reader units
same,test line signal at 1000 ng/ml MMP9,[3],12 reader units
same,test line signal at 2000 ng/ml MMP9,[3],11.8 reader units
same,test line signal at 31.25 ng/ml MMP9,[4],0 reader units
same,test line signal at 62.5 ng/ml MMP9,[4],0 reader units
same,test line signal at 125 ng/ml MMP9,[4],0 reader units
same,test line signal at 250 ng/ml MMP9,[4],0.92 reader units
same,test line signal at 500 ng/ml MMP9,[4],3.84 reader units
same,test line signal at 1000 ng/ml MMP9,[4],7.57 reader units
same,test line signal at 2000 ng/ml MMP9,[4],10.5 reader units
same,test line signal at 31.25 ng/ml MMP9,[5],1.04 reader units
same,test line signal at 62.5 ng/ml MMP9,[5],1.36 reader units
same,test line signal at 125 ng/ml MMP9,[5],2.14 reader units
same,test line signal at 250 ng/ml MMP9,[5],5.01 reader units
same,test line signal at 500 ng/ml MMP9,[5],9.93 reader units
same,test line signal at 1000 ng/ml MMP9,[5],16.8 reader units
same,test line signal at 2000 ng/ml MMP9,[5],20.5 reader units
same,sensitivity of the assay,[6],<31.25 ng/ml for an indicator molecule having 7 cleavage sites
same,test line signal at 31.25 ng/ml MMP9,[6],2.27 reader units
same,test line signal at 62.5 ng/ml MMP9,[6],2.81 reader units
same,test line signal at 125 ng/ml MMP9,[6],3.25 reader units
same,test line signal at 250 ng/ml MMP9,[6],6.19 reader units
same,test line signal at 500 ng/ml MMP9,[6],9.31 reader units
same,test line signal at 1000 ng/ml MMP9,[6],21.3 reader units
same,test line signal at 2000 ng/ml MMP9,[6],25.3 reader units
same,cut-off of the assay,[7],The cut-off with all indicator molecules was below <31.25 ng/ml
same,test line signal at 31.25 ng/ml MMP9,[7],1.36 reader units
same,test line signal at 62.5 ng/ml MMP9,[7],1.78 reader units
same,test line signal at 125 ng/ml MMP9,[7],3.46 reader units
same,test line signal at 250 ng/ml MMP9,[7],5.44 reader units
same,test line signal at 500 ng/ml MMP9,[7],6.87 reader units
same,test line signal at 1000 ng/ml MMP9,[7],5.48 reader units
same,test line signal at 2000 ng/ml MMP9,[7],12.8 reader units
same,cut-off of the assay,[8],The cut-off with all indicator molecules was below <31.25 ng/ml
same,test line signal at 31.25 ng/ml MMP9,[8],1.45 reader units
same,test line signal at 62.5 ng/ml MMP9,[8],2.56 reader units
same,test line signal at 125 ng/ml MMP9,[8],3.1 reader units
same,test line signal at 250 ng/ml MMP9,[8],5.58 reader units
same,test line signal at 500 ng/ml MMP9,[8],9.04 reader units
same,test line signal at 1000 ng/ml MMP9,[8],11.6 reader units
same,test line signal at 2000 ng/ml MMP9,[8],17.9 reader units
same,cut-off of the assay,[9],The cut-off with all indicator molecules was below <31.25 ng/ml
same,test line signal at 31.25 ng/ml MMP9,[9],2.69 reader units
same,test line signal at 62.5 ng/ml MMP9,[9],2.94 reader units
same,test line signal at 125 ng/ml MMP9,[9],5.63 reader units
same,test line signal at 250 ng/ml MMP9,[9],10.1 reader units
same,test line signal at 500 ng/ml MMP9,[9],11.2 reader units
same,test line signal at 1000 ng/ml MMP9,[9],16.3 reader units
same,test line signal at 2000 ng/ml MMP9,[9],16.2 reader units

# Source: patent US20150160219
